“Also recorded” adds a separate entry of the source.
What was measured:
Assay type in all cases: cell-based, mouse
[1] = test system: mESCs-derived NMPs / NPCs; experiment: Bulk RNA-Seq differential expression and qRT-PCR after RA or RA+BMP4 treatment; details: AGN193109 added in 10 molar excess with the RA
Description: Bulk-RNA sequencing and data processing: Total cell lysate was obtained in buffer RLT (Qiagen) at different time points from three independent differentiations (biological replicates) conducted parallelly. RNA extraction was performed using RNeasy mini kit (Qiagen) and the quality was determined using Agilent Technologies 2100 Bioanalyzer and only samples with a RIN score >8.0 were sequenced. Stranded libraries were constructed using Universal plus mRNA sequencing kit (NuGEN) and sequenced onto 2 lanes of NovaseqS1 to generate 30 million reads/sample. Obtained reads were aligned to the latest mouse reference genome (mm10) using the STAR spliced read aligner. Pearson correlation and principal component analysis (PCA) was performed to determine the similarities among the samples and replicates. Differentially expressed genes were identified using DESeq and EdgeR package on R platform. The candidate genes were selected using cutoff false discovery rate (FDR <0.05) and log fold change (>2). Differentially expressed gene lists were further subjected to Enrichr, Metascape (Zhou et al., 2019) and DAVID functional annotation tools to identify enriched gene ontology (GO) categories.
(§1) Quantitative (a) RT-PCR analysis: RNA was isolated with RNeasy Mini Kit (Qiagen, cat no. 74104), and converted to cDNA using Superscript IV First Strand Synthesis kit (Thermo Fisher Scientific). qRT-PCR was performed using SYBR Green PCR Master Mix (Applied Biosystems) on Roche 480 Lightcycler (Roche). The relative fold expression was calculated using 2-AACt method of comparing the expression of the target gene with that of the housekeeping gene glyceraldehyde 3-phosphate dehydrogenase (Gapdh). All experiments were repeated at least 2-3 times (technical replicates) from at least two independent differentiations (biological replicates), and data is represented as mean±SEM.
We took advantage of the directed differentiation protocols to investigate the unresolved mechanisms by which RA and BMP direct dI fate specification. To further validate the use of a stem cell model, we first assessed the genetic basis of the fate decisions mediated by RA signaling. During the 24 hr pulse of RA at day 3, Pax3 levels gradually increase, while T expression concomitantly declines (FIG. 12A). […] To identify the transcriptional changes occurring during this first commitment step, we performed bulk RNA-Seq at day 3 (NMP state), day 3.25 (early transcriptional response to RA) and day 4 (dP state1) (FIG. 11B).
We hypothesized that the addition of BMP4 to NPCs in dP state1, directs them to a more dorsal dP state, i.e. dP state2 (FIG. 11A). To define the transcriptional changes occurring after BMP4 addition, we performed bulk RNA-Seq at day 4 (dP state1), day 4.25 (early transcriptional response to RA+BMP4) and at day 5 (dP state2) (FIG. 4A). […] 78 genes, out of 411, were common between both time points (FIGS. 4B, 13B). Focusing on these common genes, we identified enriched functional processes using GO analyses. The GO terms included the BMP signaling pathway (FIG. 4C, Table 3), confirming that the analysis identified BMP responsive genes.

[2] = test system: Wnt/β-catenin signaling; experiment: Inhibition of Wnt/β-catenin signaling during dI differentiation (IHC and RT-qPCR at day 9)
Description: (§2) The mouse ESC line, MM13, was routinely maintained in ES cell media (DMEM+20% FBS) with 100u/ml of mouse leukocyte inducing factor (LIF). […] To prepare cells for the differentiation, ESC colonies were dissociated with 0.25% trypsin and plated on gelatin coated plates at 1:10 dilution to reduce MEF transfer. Cells cultured on gelatin coated plates and allowed to proliferate for 1-2 days. To initiate differentiation, cells were plated on 0.1% gelatin coated 24-well CellBIND dishes (Corning) at 20,000 cells/ml density in 0.5 ml/well N2/B27 medium that contains 10 ng/ml basic fibroblast growth factor (bFGF). The N2/B27 medium contains 1:1 portions of Advanced Dulbecco's modified Eagle Media (DMEM) F12 (Hyclone) and Neurobasal media (Thermo Fisher Scientific) supplemented with 0.5×N2, 1×B27 supplement (with Vitamin A), 2 mM L-glutamine, 0.1 mM 2-mercaptoethanol (ME), and 1% BSA. On day 1, small colonies of cells can be observed attached to the bottom of the wells. On day 2, cells were supplemented with 10 ng/ml bFGF and 5 μM CHIR99021 for 24 hours to induce a neuromesodermal identity (Gouti et al., 2014). On day 3, media was changed as follows: for protocol 1, cells were exposed to 100 nM RA for 48 hrs. For protocol 2, 10 ng/ml human recombinant BMP4 (Thermo Fisher Scientific) was added concomitantly with 100 nM RA (RA+BMP4) for 48 hrs. For protocol 3, cells were exposed to 100 nM RA for 24 hrs, followed by a pulse of RA+BMP4 for another 24 hours. To induce terminal differentiation in all three conditions, the medium containing growth factors was replaced with basic N2/B27 medium at day 5, and cell allowed to differentiate to day 9. At the end of the differentiation, the cultures were fixed for immunohistochemical analysis or lysed to obtain RNA for RNA-Seq or quantitative reverse transcriptase PCR analysis.
Immunohistochemistry: For 2d differentiations, adherent cultures were first washed with 1×PBS and fixed with fresh cold 4% PFA for 10 minutes in the well. Following fixation, cultures were washed twice with 1×PBS to remove any remaining PFA. Cells were blocked with 1×PBS with 1% heat inactivated horse serum for 1 hour and primary antibodies are added in the blocking solution for an overnight incubation at 4C. Following washes, species appropriate secondary antibodies (Jackson Immuno Research Laboratories) were added in 1× PBT (PBS+0.1% […]) for 1 hr. The cultures were then washed with 1× PBT to remove traces of secondary antibodies and counterstained with DAPI to stain nuclei. Plates were then imaged on Zeiss LSM800 inverted confocal microscope at 10× magnification.
as §1
To assess the role of canonical Wnt signaling in dI fate specification, we added endo-IWR1 (IWR1e), a small molecule inhibitor which blocks p-catenin function (Chen et al., 2009) to dPs from day 4-6 (FIG. 5A). By day 9, the RA+BMP4 condition robustly induces dlis-dI3s (FIG. 5F-51, 5N-5P).

[3] = test system: mESCs derived spinal NPCs; experiment: Sufficiency of Wnt ligands or CHIR for dI fates (RT-qPCR at day 9); details: for identity of the BMP4-mediated dI fates (Lhx2, Foxd3, IsI2): RA+BMP4 protocol, Wnts 100 ng/ml or CHIR 5 μM for 24 hrs at day 5; for induction of BMP4 dependent dI fates (Lhx2, Foxd3, IsI1): added with RA at day 4 for 24 hrs, Wnts 100 ng/ml, CHIR 5 μM
Description: as §2, §1
We assessed these models, first by determining the effect of canonical Wnts (Wnt1, Wnt2, and Wnt3a), a non-canonical Wnt (Wnt9b) and a small molecule Wnt agonist (CHIR99021) on dI identity in the RA±BMP4 protocols. When Wnts were added in combination with RA, they were unable to induce the dorsal-most dIs by day 9 (FIG. 14A). […] Thus, Wnts are not sufficient to direct dI fate identity.

[4] = inhibitor added to RA+BMP4 (protocol 3) from day 4, 48 hours, day 9

Cc1ccc(C2=CCC(C)(C)c3ccc(C#Cc4ccc(C(=O)O)cc4)cc32)cc1 [AGN193109]
upregulation of the RA-induced genes [1]: not upregulated

O=C(Nc1cccc2cccnc12)c1ccc(N2C(=O)[C@@H]3[C@H](C2=O)[C@@H]2C=C[C@H]3C2)cc1 [IWR1e]
dI1 and dI2 differentiation [2, 4]: loss of dI1s and dI2s; also recorded: dramatic reduction in the dI1 and dI2 populations; also recorded: most strongly suppresses the differentiation of the BMP4-dependent dI1/dI2s | dI3 differentiation [2, 4]: dI3 differentiation was less affected; also recorded: modest increase in dI3s; also recorded: more modest effect on dI3s | dI4, dI5, dI6 fates [2, 4]: no suppression of Pax2+dI4/dI6 and Lmx1b+dI5 fates; also recorded: concomitant increases in dI4, dI5 and dI6s; also recorded: increase in the expression of dI4-dI6 specific genes | dP markers Pax3, Pax7, Olig3 ([2]; inhibitor added to RA+BMP4 condition): did not erode Pax3+pan-dorsal identity or Pax7 expression, but nevertheless did suppress Olig3; also recorded: prevents both the suppression of Pax7+dPs and induction of Olig3+dPs

B1: Wnt9b: mouse recombinant Wnt9b, non-canonical Wnt ligand (protein, UniProt O35468 24-359, looked up)
Protein Wnt-9b: AAYFGLTGREVLTPFPGLGTAAAPAQAGAHLKQCDLLKLSRRQKQLCRREPGLAETLRDAAHLGLLECQFQFRQERWNCSLEGRTGLLQRGFKETAFLYAVSAAALTHALARACSAGRMERCTCDDSPGLESRQAWQWGVCGDNLKYSTKFLSNFLGPKRGSKDLRARADAHNTHVGIKAVKSGLRTTCKCHGVSGSCAVRTCWKQLSPFRETGQVLKLRYDTAVKVSSATNEALGRLELWAPAKPGGPAKGLAPRPGDLVYMEDSPSFCRPSKYSPGTAGRVCSRDSSCSSLCCGRGYDTQSRMVVFSCHCQVQWCCYVECQQCAQQELVYTCKR
identity of the BMP4-mediated dI fates (Lhx2, Foxd3, IsI2) [3]: no significant effect | induction of BMP4 dependent dI fates (Lhx2, Foxd3, IsI1) [3]: neither canonical Wnts (Wnt1, Wnt2, Wnt3a, Wnt4, all at 100 ng/ml) nor a non-canonical Wnt ligand (Wnt9b) induce the BMP4 dependent dI fates

B2: Wnt4: mouse recombinant Wnt4 (protein, UniProt P22724 23-351, looked up)
Protein Wnt-4: SNWLYLAKLSSVGSISEEETCEKLKGLIQRQVQMCKRNLEVMDSVRRGAQLAIEECQYQFRNRRWNCSTLDSLPVFGKVVTQGTREAAFVYAISSAGVAFAVTRACSSGELEKCGCDRTVHGVSPQGFQWSGCSDNIAYGVAFSQSFVDVRERSKGASSSRALMNLHNNEAGRKAILTHMRVECKCHGVSGSCEVKTCWRAVPPFRQVGHALKEKFDGATEVEPRRVGSSRALVPRNAQFKPHTDEDLVYLEPSPDFCEQDIRSGVLGTRGRTCNKTSKAIDGCELLCCGRGFHTAQVELAERCGCRFHWCCFVKCRQCQRLVEMHTCR
identity of the BMP4-mediated dI fates (Lhx2, Foxd3, IsI2) [3]: no significant effect | induction of BMP4 dependent dI fates (Lhx2, Foxd3, IsI1) [3]: neither canonical Wnts (Wnt1, Wnt2, Wnt3a, Wnt4, all at 100 ng/ml) nor a non-canonical Wnt ligand (Wnt9b) induce the BMP4 dependent dI fates

B3: Wnt3a: human recombinant Wnt3a, canonical Wnt (protein, UniProt P56704 19-352, looked up)
Protein Wnt-3a: SYPIWWSLAVGPQYSSLGSQPILCASIPGLVPKQLRFCRNYVEIMPSVAEGIKIGIQECQHQFRGRRWNCTTVHDSLAIFGPVLDKATRESAFVHAIASAGVAFAVTRSCAEGTAAICGCSSRHQGSPGKGWKWGGCSEDIEFGGMVSREFADARENRPDARSAMNRHNNEAGRQAIASHMHLKCKCHGLSGSCEVKTCWWSQPDFRAIGDFLKDKYDSASEMVVEKHRESRGWVETLRPRYTYFKVPTERDLVYYEASPNFCEPNPETGSFGTRDRTCNVSSHGIDGCDLLCCGRGHNARAERRREKCRCVFHWCCYVSCQECTRVYDVHTCK
identity of the BMP4-mediated dI fates (Lhx2, Foxd3, IsI2) [3]: no significant effect | induction of BMP4 dependent dI fates (Lhx2, Foxd3, IsI1) [3]: neither canonical Wnts (Wnt1, Wnt2, Wnt3a, Wnt4, all at 100 ng/ml) nor a non-canonical Wnt ligand (Wnt9b) induce the BMP4 dependent dI fates

B4: Wnt1: human recombinant Wnt1, canonical Wnt (protein, UniProt P04628 28-370, looked up)
Proto-oncogene Wnt-1: ANSSGRWWGIVNVASSTNLLTDSKSLQLVLEPSLQLLSRKQRRLIRQNPGILHSVSGGLQSAVRECKWQFRNRRWNCPTAPGPHLFGKIVNRGCRETAFIFAITSAGVTHSVARSCSEGSIESCTCDYRRRGPGGPDWHWGGCSDNIDFGRLFGREFVDSGEKGRDLRFLMNLHNNEAGRTTVFSEMRQECKCHGMSGSCTVRTCWMRLPTLRAVGDVLRDRFDGASRVLYGNRGSNRASRAELLRLEPEDPAHKPPSPHDLVYFEKSPNFCTYSGRLGTAGTAGRACNSSSPALDGCELLCCGRGHRTRTQRVTERCNCTFHWCCHVSCRNCTHTRVLHECL
identity of the BMP4-mediated dI fates (Lhx2, Foxd3, IsI2) [3]: no significant effect | induction of BMP4 dependent dI fates (Lhx2, Foxd3, IsI1) [3]: neither canonical Wnts (Wnt1, Wnt2, Wnt3a, Wnt4, all at 100 ng/ml) nor a non-canonical Wnt ligand (Wnt9b) induce the BMP4 dependent dI fates

B5: Wnt2: human recombinant Wnt2, canonical Wnt (protein, UniProt P09544 26-360, looked up)
Protein Wnt-2: SWWYMRATGGSSRVMCDNVPGLVSSQRQLCHRHPDVMRAISQGVAEWTAECQHQFRQHRWNCNTLDRDHSLFGRVLLRSSRESAFVYAISSAGVVFAITRACSQGEVKSCSCDPKKMGSAKDSKGIFDWGGCSDNIDYGIKFARAFVDAKERKGKDARALMNLHNNRAGRKAVKRFLKQECKCHGVSGSCTLRTCWLAMADFRKTGDYLWRKYNGAIQVVMNQDGTGFTVANERFKKPTKNDLVYFENSPDYCIRDREAGSLGTAGRVCNLTSRGMDSCEVMCCGRGYDTSHVTRMTKCGCKFHWCCAVRCQDCLEALDVHTCKAPKNADWTTAT
identity of the BMP4-mediated dI fates (Lhx2, Foxd3, IsI2) [3]: no significant effect | induction of BMP4 dependent dI fates (Lhx2, Foxd3, IsI1) [3]: neither canonical Wnts (Wnt1, Wnt2, Wnt3a, Wnt4, all at 100 ng/ml) nor a non-canonical Wnt ligand (Wnt9b) induce the BMP4 dependent dI fates
